# Measured values published in publication PMC11053944, “FRET Assays for the Identification of C. albicans HSP90-Sba1 and Human HSP90α-p23 Binding Inhibitors” (Pharmaceuticals, 2024).
# Tests used:
# [1] = target: T1, human HSP90α-mNeonGreen–p23-mScarlet-I binding (Homo sapiens, UniProt P07900, E47A); assay: FRET characterization of model inhibitors and ATP on human HSP90α-p23 binding; settings: 5 mM ATP
# T1 construct: made in house; host or cells: E. coli Rosetta2(DE3) pLysS
# Procedure: In this investigation, 1 µM HSP90-mNeonGreen was incubated with 2 µM Sba1-mScarlet-I in reaction buffer containing 5 mM ATP either alone (UC) or with the addition of 20 µM Sba1. As a negative control, samples containing 20 µM bovine serum albumin (BSA) were used.
# FRET experiments were carried out in 384-well microtiter plates (Art. No. 3766 Corning, NY, USA, or Art. No. 781906, Greiner Bio-One GmbH, Frickenhausen, Germany) containing a final volume of 20 µL and measured with a microplate reader Infinite M200Pro (Tecan, Männedorf, Switzerland). The fluorescence was measured in three channels: excitation (ex.): 488 nm/emission (em.): 525 nm (mNeonGreen fluorescence), ex.: 561 nm/em.: 610 nm (mScarlet-I fluorescence) and the FRET channel ex.: 488 nm/em.: 610 nm. The excitation and emission bandwidths were set to 9 and 20 nm, respectively. Experiments for the determination of the equilibrium dissociation constants were performed with a filter-based microplate reader Infinite F200Pro (Tecan, Männedorf, Switzerland). The fluorescence was measured in three channels using the following filters: ex.: 485 ± 20 nm/em.: 535 ± 20 nm (mNeonGreen channel), ex.: 535 ± 20 nm/em.: 612 ± 10 nm (mScarlet-I channel) and the FRET channel ex.: 485 ± 20 nm/em.: 612 ± 10 nm. FRET emission (EmFRET) was calculated according to Song et al. 2011 [81]:(1) EmFRET=FLDA−x×FLDD−(y×FLAA) where FLDA is the fluorescence signal of the FRET channel and FLDD and FLAA are fluorescence signals from the mNeonGreen and mScarlet-I channels, respectively. The correction factors x and y were calculated as follows:(2) x=FLDA/FLDD for samples containing only the donor fluorophore or fluorescent fusion proteins with mNeonGreen and (3) y=FLDA/FLAA for samples containing only the acceptor fluorophore or fluorescent fusion proteins with mScarlet-I in the same concentration as samples containing both the donor and acceptor.
# All experiments were carried out in reaction buffer (40 mM HEPES/KOH pH 7.5, 20 mM KCl, 5 mM MgCl2, 20 mM Na2MoO4, Triton-X 100 0.1%). HEPES and KCl were purchased from AppliChem, Darmstadt, Germany. KOH and MgCl2 were obtained from VWR Chemicals, Darmstadt, Germany. Na2MoO4 was from Merck, Darmstadt, Germany. Triton-X 100 was purchased from Serva, Heidelberg, Germany.
# For C. albicans Sba1 competition experiments for HSP90-mNeonGreen–Sba1-mScarlet-I binding, 1 µM HSP90-mNeonGreen and 1 µM Sba1-mScarlet-I were incubated with varying concentrations of Sba1 in a range of 0–25,000 nM (lowest non-zero concentration 12 nM) in reaction buffer containing 5 mM ATP. The experiment was performed twice in nonaplicates. For human p23 competition experiments for HSP90α-mNeonGreen–p23-mScarlet-I binding, 1 µM HSP90α-mNeonGreen and 1 µM p23-mScarlet-I were incubated with varying concentrations of p23 in a range of 0–50 000 nM (lowest non-zero concentration 23 nM) in reaction buffer containing 5 mM ATP. The experiment was performed twice in hexaplicates. […] The experiment was performed thrice in triplicates. […] The IC50,rel values were calculated using the equation log (inhibitor) vs. response-variable slope (four parameters) in GraphPad Prism 5. Ki values for inhibition of HSP90-mNeonGreen–Sba1-mScarlet-I/p23-mScarlet-I binding by non-labeled Sba1/p23 were calculated with One Site—Fit Ki in GraphPad Prism 5. […] The EC50,rel values were calculated using the log (agonist) vs. response-variable slope (four parameters) equation in GraphPad Prism 5.
# human HSP90α–p23 binding = target: T2, human HSP90α–p23 binding (Homo sapiens, UniProt P07900); assay: FRET inhibitor screening assay, human HSP90α-p23 binding; settings: 10 or 100 µM, triplicates, 3 mM ATP, 1% DMSO, 15 min 37 °C
# T2 construct: made in house; host or cells: E. coli Rosetta2(DE3) pLysS
# Description: We used the Z′ factor (Z′) to optimize the FRET assays for screening purposes. Z′ represents a simple statistical parameter for the quality assessment and optimization of HTS assays and screening assays in general. It is a measure that determines the degree of signal separation between binding and non-binding data sets. Calculation of the Z′ factor is based on the standard deviation of the individual data sets as well as their general signal separation. Values ≥ 0.5 can be classified as excellent for screening purposes. […] When the fluorescent fusion proteins of HSP90 and co-chaperones bind to each other, FRET occurs between donor and acceptor fluorophores, and the sensitized emission (EmFRET) signal increases. Consequently, the fluorescence intensity of the donor decreases (FLDD). […] We defined the ‘hit threshold’ as a decrease in readout signal of more than 3 standard deviations (SDs) from the mean signal of the binding control. This constitutes a common threshold for hit identification in HTS campaigns.
# The excitation and emission bandwidths were set to 9 and 20 nm, respectively. Experiments for the determination of the equilibrium dissociation constants were performed with a filter-based microplate reader Infinite F200Pro (Tecan, Männedorf, Switzerland). […] The correction factors x and y were calculated as follows:(2) x=FLDA/FLDD for samples containing only the donor fluorophore or fluorescent fusion proteins with mNeonGreen and (3) y=FLDA/FLAA for samples containing only the acceptor fluorophore or fluorescent fusion proteins with mScarlet-I in the same concentration as samples containing both the donor and acceptor.
# For screening for the identification of ATP-competitive C. albicans HSP90 and HSP90-Sba1 binding inhibitors, 10 µL of HSP90-mNeonGreen (2 µM) and Sba1-mScarlet-I (4 µM) in HEPES buffer (40 mM HEPES/KOH pH 7.5, 20 mM KCl) was mixed with 10 µL of 200 µM compound solution in 2x reaction buffer (40 mM HEPES/KOH pH 7.5, 20 mM KCl, 10 mM MgCl2, 40 mM Na2MoO4, Triton-X 100 0.2%), 6 mM ATP, 2% DMSO, resulting ultimately in constant HSP90-mNeonGreen concentrations of 1 µM and Sba1-mScarlet-I 2 µM in reaction buffer. Samples for binding control (3 mM ATP, final concentration) and non-binding control (no ATP) were prepared in the same manner without compounds. The samples were incubated for 15 min at 30 °C prior to measurement. The assay for the human HSP90α–p23 binding inhibitor identification was performed analogously, with the exception that samples were incubated for 15 min at 37 °C prior to measurement. Since binding samples show both a high EmFRET as well as a reduction in donor emission (FLDD), we calculated the quotient (EmFRET/FLDD) to derive an improved signal separation and robustness. The nucleoside-mimetics library was obtained from Enamine (catalog No. NML-320-X-20, Enamine Ltd., Kyiv, Ukraine). Z′ and Z factors were calculated based on Zhang et al..
# human HSP90α = system: human HSP90α; design: method as in PMID 16403413; settings: cited from earlier work
# human HSP90β = target: human HSP90β; design: method as in PMID 16403413; settings: read-out: Kd of human HSP90β–p23 complex; cited from earlier work
substance,measurement,setting,value
"p23: unlabeled human HSP90 co-chaperone p23 (Q15185), His6-tagged",effect on FRET emission (EmFRET) versus untreated control,"[1]; 20 µM added, 1 µM HSP90α-mNeonGreen, 2 µM p23-mScarlet-I",significant reduction in FRET emission
same,IC50,"[1]; donor and acceptor both 1 µM, read-out: relative IC50, inhibition of HSP90α-mNeonGreen–p23-mScarlet-I binding",1400 ± 200 nM
same,hit identification (EmFRET/FLDD decrease of more than 3 SDs from binding control mean),human HSP90α–p23 binding,identified as hits
same,effect on HSP90 ATPase activity upon binding,human HSP90α,complete abrogation
same,Kd,human HSP90β,1500 nM
